These results are taken from article PMC7293005 (Nucleic Acids Research, 2020).

For the test, the target named is T1, 6xHis-tagged full-length Prp5p (S. cerevisiae, UniProt P21372 1-849).
T1 sequence: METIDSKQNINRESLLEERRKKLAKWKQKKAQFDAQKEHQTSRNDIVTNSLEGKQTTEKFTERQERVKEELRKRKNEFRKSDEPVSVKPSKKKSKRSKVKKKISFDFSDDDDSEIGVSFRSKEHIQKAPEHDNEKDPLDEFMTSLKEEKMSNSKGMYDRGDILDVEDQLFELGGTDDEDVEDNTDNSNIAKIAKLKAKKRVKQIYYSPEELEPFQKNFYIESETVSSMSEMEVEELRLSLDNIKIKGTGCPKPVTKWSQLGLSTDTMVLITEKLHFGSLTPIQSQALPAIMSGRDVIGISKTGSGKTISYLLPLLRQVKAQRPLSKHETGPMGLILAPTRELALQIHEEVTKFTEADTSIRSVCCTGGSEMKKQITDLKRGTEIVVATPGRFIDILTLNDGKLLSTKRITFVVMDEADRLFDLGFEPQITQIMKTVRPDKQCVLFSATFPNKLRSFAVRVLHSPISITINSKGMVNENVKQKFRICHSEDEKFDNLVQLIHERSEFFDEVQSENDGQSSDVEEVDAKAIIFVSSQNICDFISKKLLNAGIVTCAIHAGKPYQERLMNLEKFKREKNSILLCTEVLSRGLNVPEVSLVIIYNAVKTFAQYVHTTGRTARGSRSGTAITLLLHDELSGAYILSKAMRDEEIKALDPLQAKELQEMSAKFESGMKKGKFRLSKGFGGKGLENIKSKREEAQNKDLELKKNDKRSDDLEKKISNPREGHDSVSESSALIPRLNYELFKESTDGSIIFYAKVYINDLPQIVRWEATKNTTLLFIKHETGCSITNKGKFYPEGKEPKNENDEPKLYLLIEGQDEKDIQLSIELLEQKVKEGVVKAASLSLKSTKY
The test is described as follows: pull-down.

B1: GST-tagged Spt8p (natural protein, S. cerevisiae, UniProt P38915 1-602, looked up)
chain: MDEVDDILINNQVVDDEEDDEEMLSGLENDSKQDLEGNDDGGEDEEDDDDDDEDDDDDEDEREDDDEQEDDDGEDDAARMDKTATPTNEHQHDEQKAAAAGAGGAGDSGDAVTKIGSEDVKLSDVDGGVGSREASSSTHEASANGEVYEYYKHMLNAAQIADSYNIYPTAAIPIQTHVNALAVSRGLKYLFLGGSDGYIRKYDLLNTLEGKLSLTILQKHSLAESIQNAGILQSYWENEIPQKKSEMKLSANKTDYEPKVSPVHSLEVQSECLFILSGLQNGGITMQGVRYMEGSIAHYFKGRNGHTQIVNILRLNGQEDRFLSGSWDKRLLEWDLQTGDIVNEFKKSRSELSSLEMRPLYSSVDVSGNVNSGKENENADDDMDSLFGDEDEDEKQDAGNEPVETGDGSNGEENKEQISEESLNIVYDESVFMTSGLNGSVHIWDRRMTQSPALSLERGAGVPPWCLSACWGVDGDHVYAGRRNACVEQFDLKMPSKPIHNLKLPSISGPVSCVKAMPNNKHLLCASRDNIRLYNVEIAVDASNSTTKSSKVPFLIVPGHHGGIISNLYLDPTSRFIISTSGNRGWQGNSTDTTLIYDIDLE
As to B1, the binding result is given as “binds”.
